Experimental data as given in patent US20250163449A1, “HERBICIDE-TOLERANT GENES AND METHOD FOR USING SAME” (QINGDAO KINGAGROOT CHEMICAL COMPOUND CO., LTD., priority 2022, published 2025).

Experiments:
[1] = tested on: Arabidopsis thaliana; assay: T2 transgenic Arabidopsis thaliana seeds screened on compound A medium; assay type: in vivo; conditions: 0.15 μM compound A in medium, 11-24 days
Excerpt: Engineered proteins were selected for Arabidopsis thaliana transformation and plant analysis. DNA constructs were transformed into Arabidopsis thaliana using Agrobacterium tumifaciens and standard methods known in the art.
The transformed TO transgenic plantlets grew in the greenhouse. T1 generation Arabidopsis thaliana plant seeds produced by transformation of all constructs were collected after approximately 60 days of growth. Transgenic T1 generation Arabidopsis thaliana plants were screened by adding HYG to medium for T1 generation. T1 plants were selfed to produce seeds of T2 generation Arabidopsis thaliana plants. Wherein, compound A was added to medium to screen and test T2 generation Arabidopsis thaliana plant seeds, that were produced by all constructs, comprising unique events screened by T1 generation.

[2] = Conversion rate of substrate compound A by E. coli expressing each engineered protein (HPLC, oxygenase activity); assay type: biochemical
Excerpt: The high-throughput bacterial protein expression was achieved by cloning the synthesized gene that encodes each engineered protein into a bacterial expression vector with a C-terminal histidine tag (His-tag). The vectors were transformed into Escherichia coli (E. coli), and expression of the engineered proteins was induced. E. coli cultures were selected and cultured in centrifuge tubes overnight, meanwhile, added with substrates and IPTG, and the cultures were centrifuged to pellet the bacteria the next day. Alternatively, E. coli cultures were selected and cultured in centrifuge tubes overnight, and centrifuged to pellet the bacteria after adding substrates for reaction the next day. The supernatant of reaction solution was pipetted into a 96-well plate and the absorbance at 510 nm from 4-aminoantipyrine and potassium ferricyanide was measured by an endpoint colorimetric method to detect phenol products. Substrate reduction and product yield were measured by high performance liquid chromatography (HPLC) to detect the oxygenase activity (i.e., enzymatic activity) of the engineered proteins, and the activities of the proteins were compared by calculating conversion rates.
Conversion rate=(Peak area of initial substrate−Peak area of substrate after reaction)/Peak area of initial substrate*100%

[3] = tested on: Arabidopsis thaliana; assay: T2 transgenic Arabidopsis thaliana plants foliage-sprayed with compound B; assay type: in vivo; conditions: foliage-sprayed with 40 g/mu compound B, 12 days
Excerpt: In addition, compound B was sprayed to test T2 generation Arabidopsis thaliana plants, that were produced by some of the constructs, comprising unique events screened by T1 generation, wherein, the test results of the wild-type Arabidopsis thaliana control plants transformed with RdpA gene and Arabidopsis thaliana plants comprising the protein-coding gene of SEQ ID NO: 42 after being foliage-sprayed with 40 g/mu compound B for 12 days are shown in FIG. 4.

[4] = tested on: soybean; assay: Transgenic soybeans sprayed with compound C; assay type: in vivo; conditions: for resistance compared with the wild-type soybean: 10 g compound C sprayed
Method: Engineered proteins were selected for soybean transformation and plant analysis. DNA constructs were transformed into soybeans using Agrobacterium tumifaciens and standard methods known in the art.
The transformed TO transgenic plantlets grew in the greenhouse. TO generation transgenic plantlets were tested by spraying 10 g compound C. […] T1 generation soybean plant seeds produced by transformation of all constructs were collected, and T1 generation seedlings were tested by spraying 10 g compound C.

[5] = Enzymatic kinetic measurements of purified proteins with compound A as substrate; assay type: biochemical; conditions: purified protein, compound A 0-1000 μM as substrate
Method: Based on the results of HPLC, representative engineered proteins were selected for protein purification. Further protein characterization, such as Km, Vmax and Kcat, was performed on the 8 engineered proteins from Table 2. Conventional Ni column affinity chromatography was used for protein purification and protein extract purity was assessed by SDS-PAGE analysis. After determining protein concentration by BCA method, enzyme activity was determined.

[6] = tested on: rice (Jinjing 818); assay: Transgenic rice T0 plantlets in greenhouse sprayed with compound B; assay type: in vivo; conditions: for tolerance compared with the wild types (summary): medicated medium test and greenhouse spraying test for T0 generation, compound B
Method: (§1) Then, the obtained regenerated TO generation transgenic plantlets grew in the greenhouse, and were sprayed with compound B at the growth stage when approximately two leaves unfolded and the third one just appearing. Resistance levels of plants were recorded and evaluated after spraying treatment, wherein, the test results of control Jinjing 818 plants and transgenic Jinjing 818 plants comprising the protein-coding gene of SEQ ID NO: 42 after applying 20 g, 40 g, 60 g, 80 g, 100 g, 120 g/mu (1 mu=1/15 ha) compound B for corresponding days (DAT) are shown in FIG. 2.

[7] = tested on: rice (Jinjing 818); assay: Transgenic rice seedlings, compound B added to medium at rooting phase; assay type: in vivo; conditions: at least 1 μM compound B in medium (0.5 and 1 μM for SEQ ID NO: 42), 17-26 days
Method: Plant transformation vectors were constructed, each comprising a recombinant DNA molecule encoding an engineered protein (SEQ ID NO: 42/38/82/86/102/106/126/138/142) with the protein-coding sequence optimized for monocot expression, and rice (Jinjing 818) calli were transformed with these vectors using Agrobacterium tumifaciens and standard methods known in the art. Different concentrations of hormone herbicide compound B were added at the rooting phase of the rice seedlings to test hormone resistance, wherein, the test results of control Jinjing 818 plants and transgenic Jinjing 818 plants comprising the protein-coding gene of SEQ ID NO: 42 after adding 0.5 μM and 1 μM compound B to medium for 19 days are shown in FIG. 1. The test results of control Jinjing 818 plants and transgenic Jinjing 818 plants comprising the protein-coding genes of SEQ ID NO: 38/82/86/102/106/126/138/142 after adding 1 μM compound B to medium are shown in FIG. 5-11.

[8] = tested on: maize; assay: T0 transgenic maize plantlets sprayed with 30% glyphosate compound C (25+5) ME; assay type: in vivo
Method: Engineered proteins were selected for maize transformation and plant analysis. DNA constructs were transformed into maizes using Agrobacterium tumifaciens and standard methods known in the art.
The transformed TO transgenic plantlets grew in the greenhouse. TO generation transgenic plantlets were tested by spraying with 150 g, 250 g, 400 g, 600 g, 800 g of 30% glyphosate compound C (25+5) ME.

[9] = tested on: rice (Jinjing 818); assay: Transgenic rice T0 plantlets in greenhouse sprayed with quizalofop-P-ethyl; assay type: in vivo; conditions: T0 plantlets foliage-sprayed with 5 g, 10 g/mu quizalofop-P-ethyl, 20 DAT
Method: as §1, with “The” for “Then, the”, “quizalofop-P-ethyl” for “B”, “46” for “42”, “applying 0 g, 5 g, 10 g/mu compound quizalofop-P-ethyl for” for “applying”, “DAT” for “g, 40 g, 60 g, 80 g, 100 g, 120 g/mu (1 mu=1/15 ha) compound B for corresponding days (DAT)”, “12.” for “2.”

[10] = Reaction condition 1: bacteria cultured overnight, substrate compound A and IPTG added to react overnight

Molecule	drug resistance compared with wild-type Arabidopsis thaliana (longer roots and larger leaves) [1]	Conversion rate [2, 10] [%]	drug resistance compared with wild-type plants transformed with RdpA gene [3]	drug resistance compared with the wild-type soybeans ([4]; T1 generation plantlets, 10 g, 20 g, 40 g, 80 g compound C sprayed, at least 40 g)	Kcat [5] [S^−1]	Km [5] [µM]	Vmax [5]	drug resistance (tolerance to compound B) compared with wild-type plants ([6]; T0 plantlets foliage-sprayed with 20-120 g/mu compound B, tolerance at at least 120 g/mu)	tolerance compared with the wild types (summary) [6]	drug resistance (tolerance to compound B) compared with wild-type plants [7]	resistance compared with the wild-type soybean ([4]; T0 generation plantlets)	resistance compared with the wild-type soybean ([4]; T1 generation seedlings)	drug resistance compared with the wild-type maize ([8]; 600 g 30% glyphosate compound C (25+5) ME)	phytotoxicity reaction of transgenic plantlets ([8]; 600 g of 30% glyphosate compound C (25+5) ME)	phytotoxicity reaction of transgenic plantlets ([8]; 800 g of 30% glyphosate compound C (25+5) ME)	phytotoxicity reaction of transgenic plantlets ([8]; concentration below 600 g of 30% glyphosate compound C (25+5) ME)	drug resistance (tolerance to quizalofop-P-ethyl) compared with wild-type plants [9]	Conversion rate ([2]; Reaction condition 2: bacteria cultured overnight, 8 times dose of substrate compound A of condition 1 added, react 3 hours the next day) [%]
SEQ ID NO: 42: RdpA mutant L82H + V187L + F182W + G103L (protein) MHAALSPLSQRFERIAVQPLTGVLGAEITGVDLREPLDDSTWNEILDAFHTYQVIYFPGQAITNEQHIAFSRRFGPVDPVPHLKSIEGYPEVQMIRREANESLRVIGDDWHTDSTFLDAPPAAVVMRAIDVPEHGGDTGFLSMYTAWETLSPTMQATIEGLNVVHSATRVFGSLYQAQNRRWSNTSLKVMDVDAGDRETVHPLVVTHPGSGRKGLYVNQVYCQRIEGMTDAESKPLLQFLYEHATRFDFTCRVRWKKDQVLVWDNLCTMHRAVPDYAGKFRYLTRTTVGGVRPAR	exhibited better drug resistance	96.6	exhibited better drug resistance	exhibited better drug resistance	0.86	81.3	99.6	exhibited better drug resistance	exhibited apparent tolerance	exhibited better drug resistance								
SEQ ID NO: 46: RdpA mutant L82H + V187L + F182W + R104G + T112S (protein) MHAALSPLSQRFERIAVQPLTGVLGAEITGVDLREPLDDSTWNEILDAFHTYQVIYFPGQAITNEQHIAFSRRFGPVDPVPHLKSIEGYPEVQMIRREANESGGVIGDDWHSDSTFLDAPPAAVVMRAIDVPEHGGDTGFLSMYTAWETLSPTMQATIEGLNVVHSATRVFGSLYQAQNRRWSNTSLKVMDVDAGDRETVHPLVVTHPGSGRKGLYVNQVYCQRIEGMTDAESKPLLQFLYEHATRFDFTCRVRWKKDQVLVWDNLCTMHRAVPDYAGKFRYLTRTTVGGVRPAR	exhibited better drug resistance	97			0.15	17.5	35.2				exhibited apparent resistance	exhibited apparent resistance	better drug resistance	the stem base was slightly enlarged, the whole plant growth was obviously inhibited, and the plant was in normal condition	the stem base was significantly enlarged, inhibition on the whole plant growth was further intensified, and the leaf color became lighter and lusterless	no apparent phytotoxicity reaction	exhibited better drug resistance	
SEQ ID NO: 142: RdpA mutant L82H + V187L + F182W + R104G + T112S + R180Q (protein) MHAALSPLSQRFERIAVQPLTGVLGAEITGVDLREPLDDSTWNEILDAFHTYQVIYFPGQAITNEQHIAFSRRFGPVDPVPHLKSIEGYPEVQMIRREANESGGVIGDDWHSDSTFLDAPPAAVVMRAIDVPEHGGDTGFLSMYTAWETLSPTMQATIEGLNVVHSATRVFGSLYQAQNQRWSNTSLKVMDVDAGDRETVHPLVVTHPGSGRKGLYVNQVYCQRIEGMTDAESKPLLQFLYEHATRFDFTCRVRWKKDQVLVWDNLCTMHRAVPDYAGKFRYLTRTTVGGVRPAR	exhibited better drug resistance								exhibited apparent tolerance	exhibited better drug resistance								67
